Paper PMC5856089

Columns and labels:
[1] = biological target: T1, C-luc Apaf-1 (full length Apaf-1 fused through its N-terminus to the C-terminal fragment, amino acids 395-550, of P. pyralis luciferase, with C-terminal His-tag), O14727; test: split reporter (BiFC, NanoBiT); cell-free split luciferase: extracts of N-luc Apaf-1 and C-luc Apaf-1 expressing cells mixed, cytochrome c (1.6 μM) and dATP (1.0 mM) added, room temperature; against the mixture without cytochrome c and dATP; details: remark: other sources report otherwise
T1 chain: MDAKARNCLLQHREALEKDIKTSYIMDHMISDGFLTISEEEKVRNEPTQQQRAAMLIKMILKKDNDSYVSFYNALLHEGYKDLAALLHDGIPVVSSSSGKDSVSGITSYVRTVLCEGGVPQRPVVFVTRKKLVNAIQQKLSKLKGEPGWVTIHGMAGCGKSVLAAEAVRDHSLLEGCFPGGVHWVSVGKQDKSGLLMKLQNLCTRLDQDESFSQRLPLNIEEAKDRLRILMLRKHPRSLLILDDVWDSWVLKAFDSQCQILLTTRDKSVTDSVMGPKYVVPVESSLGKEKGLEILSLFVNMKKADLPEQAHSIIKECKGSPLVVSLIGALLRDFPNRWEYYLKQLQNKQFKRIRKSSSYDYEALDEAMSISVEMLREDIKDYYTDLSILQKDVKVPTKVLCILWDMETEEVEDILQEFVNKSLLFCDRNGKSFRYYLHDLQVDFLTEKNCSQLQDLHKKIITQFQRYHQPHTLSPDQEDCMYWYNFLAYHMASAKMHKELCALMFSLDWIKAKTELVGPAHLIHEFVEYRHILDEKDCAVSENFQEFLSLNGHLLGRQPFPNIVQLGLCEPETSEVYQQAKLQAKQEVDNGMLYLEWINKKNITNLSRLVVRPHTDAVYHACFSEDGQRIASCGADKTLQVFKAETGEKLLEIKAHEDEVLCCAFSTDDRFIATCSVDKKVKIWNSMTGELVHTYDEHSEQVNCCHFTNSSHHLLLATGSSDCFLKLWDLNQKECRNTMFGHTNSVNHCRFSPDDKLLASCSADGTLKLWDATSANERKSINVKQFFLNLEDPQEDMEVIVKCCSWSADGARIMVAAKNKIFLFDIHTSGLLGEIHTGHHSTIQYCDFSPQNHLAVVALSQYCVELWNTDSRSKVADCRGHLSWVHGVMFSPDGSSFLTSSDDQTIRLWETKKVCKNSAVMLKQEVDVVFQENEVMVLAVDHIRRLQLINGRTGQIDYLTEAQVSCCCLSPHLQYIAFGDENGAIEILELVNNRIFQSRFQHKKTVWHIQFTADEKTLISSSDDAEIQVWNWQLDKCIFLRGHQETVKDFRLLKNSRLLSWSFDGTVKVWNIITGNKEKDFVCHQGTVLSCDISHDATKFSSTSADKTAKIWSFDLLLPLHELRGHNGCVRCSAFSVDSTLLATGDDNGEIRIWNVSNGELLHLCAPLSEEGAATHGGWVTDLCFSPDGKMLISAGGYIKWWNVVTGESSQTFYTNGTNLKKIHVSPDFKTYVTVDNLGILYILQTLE

[2] = biological target: T1, C-luc Apaf-1 (full length Apaf-1 fused …); test: split reporter (BiFC, NanoBiT); cell-based split luciferase: HEK293 co-transfected with N-luc Apaf-1 and C-luc Apaf-1 (N/P 12), apoptosis induced with 0.5 μM doxorubicin, lysates (CCLR) prepared 12, 24, 28 and 36 h after induction; luciferase activity against uninduced cells; details: remark: other sources report otherwise

fold increase in reconstituted luciferase activity with dATP/cytochrome c against the mixture without them [1]: 5 fold | fold change in luciferase activity against uninduced cells, 12 h after apoptosis induction [2]: 10 fold | fold change in luciferase activity against uninduced cells, 24 h after apoptosis induction [2]: 130 fold | fold change in luciferase activity against uninduced cells, 28 h after apoptosis induction [2]: 280 fold | fold change in luciferase activity against uninduced cells, 36 h after apoptosis induction [2]: 40 fold
B1: N-luc Apaf-1 (full length Apaf-1 fused through its N-terminus to the N-terminal fragment, amino acids 1-416, of P. pyralis luciferase), O14727 1-1248 (natural protein)
chain: MDAKARNCLLQHREALEKDIKTSYIMDHMISDGFLTISEEEKVRNEPTQQQRAAMLIKMILKKDNDSYVSFYNALLHEGYKDLAALLHDGIPVVSSSSGKDSVSGITSYVRTVLCEGGVPQRPVVFVTRKKLVNAIQQKLSKLKGEPGWVTIHGMAGCGKSVLAAEAVRDHSLLEGCFPGGVHWVSVGKQDKSGLLMKLQNLCTRLDQDESFSQRLPLNIEEAKDRLRILMLRKHPRSLLILDDVWDSWVLKAFDSQCQILLTTRDKSVTDSVMGPKYVVPVESSLGKEKGLEILSLFVNMKKADLPEQAHSIIKECKGSPLVVSLIGALLRDFPNRWEYYLKQLQNKQFKRIRKSSSYDYEALDEAMSISVEMLREDIKDYYTDLSILQKDVKVPTKVLCILWDMETEEVEDILQEFVNKSLLFCDRNGKSFRYYLHDLQVDFLTEKNCSQLQDLHKKIITQFQRYHQPHTLSPDQEDCMYWYNFLAYHMASAKMHKELCALMFSLDWIKAKTELVGPAHLIHEFVEYRHILDEKDCAVSENFQEFLSLNGHLLGRQPFPNIVQLGLCEPETSEVYQQAKLQAKQEVDNGMLYLEWINKKNITNLSRLVVRPHTDAVYHACFSEDGQRIASCGADKTLQVFKAETGEKLLEIKAHEDEVLCCAFSTDDRFIATCSVDKKVKIWNSMTGELVHTYDEHSEQVNCCHFTNSSHHLLLATGSSDCFLKLWDLNQKECRNTMFGHTNSVNHCRFSPDDKLLASCSADGTLKLWDATSANERKSINVKQFFLNLEDPQEDMEVIVKCCSWSADGARIMVAAKNKIFLFDIHTSGLLGEIHTGHHSTIQYCDFSPQNHLAVVALSQYCVELWNTDSRSKVADCRGHLSWVHGVMFSPDGSSFLTSSDDQTIRLWETKKVCKNSAVMLKQEVDVVFQENEVMVLAVDHIRRLQLINGRTGQIDYLTEAQVSCCCLSPHLQYIAFGDENGAIEILELVNNRIFQSRFQHKKTVWHIQFTADEKTLISSSDDAEIQVWNWQLDKCIFLRGHQETVKDFRLLKNSRLLSWSFDGTVKVWNIITGNKEKDFVCHQGTVLSCDISHDATKFSSTSADKTAKIWSFDLLLPLHELRGHNGCVRCSAFSVDSTLLATGDDNGEIRIWNVSNGELLHLCAPLSEEGAATHGGWVTDLCFSPDGKMLISAGGYIKWWNVVTGESSQTFYTNGTNLKKIHVSPDFKTYVTVDNLGILYILQTLE
